# B1: M110-(M1-E309): rat aorta M110 fragment, residues 1-309, released from GST-fusion protein with thrombin (protein)
# chain: GSPGMKMADAKQKRNEQLKRWIGSETDLEPPVVKRQKTKVKFDDGAVFLAACSSGDTDEVLKLLHRGADINYANVDGLTALHQACIDDNVDMVKFLVENGANINQPDNEGWIPLHAAASCGYLDIAEFLIGQGAHVGAVNSEGDTPLDIAEEEAMEELLQNEVNRQGVDIEAARKEEERIMLRDARQWLNSGHISDVRHAKSGGTALHVAAAKGYTEVLKLLIQAGYDVNIKDYDGWTPLHAAAHWGKEEACRILVDNLCDMETVNKVGQTAFDVADEDILGYLEELQKKQNLLHSEKRDKKSPLIESTANMEA
# Columns and labels:
# PP1c [1] = target: T1, PP1c (Oryctolagus cuniculus, UniProt P62143); test: Phosphorylase phosphatase activity of PP1c; format: biochemical, rabbit
# T1 construct: from tissue; host or cells: rabbit skeletal muscle (PP1G dissociated with LiBr)
# Experimental: A,B; Effects of M110-(M1-E309) (closed circles), M110-(M1-F38) (open circles) and M110-(D39-E309) (open triangles) on the MLC20 phosphatase […] and phosphorylase phosphatase (B) activities of PP1c were measured after incubating PP1c for 15 minutes at 30° C. with each fragment. The results are presented as a percentage of those obtained in experiments where the M110 fragments were omitted.
# C,D; The effect of M110-(M1-A150) (open circles) and M110-(L24-Y496) (closed circles) on the MLC20 phosphatase (C) and phosphorylase phosphatase (D) activities of PP1c were measured as in A,B.
# (B) The phosphorylase phosphatase activity of PP1c was assayed as in A in the presence or absence of 1 μM GM-(G63-T93) and 1.0 nM M110-(M1-E309). The results are presented (SEM for three experiments) as a percentage of the PP1c activity measured in the absence of GM-(63-T93), M110-(M1-F38) or M110-(M1-E309).
# The myosin-associated form of PP1 (PP1M) was from chicken gizzard and the glycogen-associated form of PP1 (PP1G) from rabbit skeletal muscle. The β isoform of PP1c was released from PP1G by incubation for 2 hours in 2M LiBr, then purified by gel-filtration on a 30×1 cm column of Superose 12 (Pharmacia, Milton Keynes, U.K.) in the presence of 0.5M LiBr. Glycogen protein particles from rat liver were used as the source of hepatic PP1G Digoxygenin-labelled PP1c (γ1-isoform, hereafter termed PP1) was prepared as in [9]. GL was expressed in E. coli as a glutathione-S-transferase (GST) fusion protein [7], termed GST-GL. The catalytic subunit of PP2A from bovine heart (PP2AC) was provided by Dr R. MacKintosh in this Unit. The phosphorylatable myosin light chain (MLC20) and heavy meromyosin from chicken gizzard were a gift from Dr M. Ikebe (Case Western Reserve University, Cleveland, USA). Thrombin and benzamidine-Agarose were purchased from Sigma (Poole, UK).
# (§1) ^32P-labelled rabbit skeletal muscle phosphorylase a (containing 1.0 mol phosphate per mol subunit) was prepared by phosphorylation with phosphorylase kinase, ^32P-labelled rabbit skeletal muscle glycogen synthase (containing 1.5 mol/mol subunit in the sites 3 region) was prepared by phosphorylation with glycogen synthase kinase-3 [24]). ^32P-labelled chicken gizzard MLC20 and ^32P-labelled chicken gizzard heavy meromyosin (containing 1.0 mol phosphate per mol subunit) were prepared by phosphorylation with smooth muscle myosin light chain kinase. The dephosphorylation of phosphorylase a (10 μM), glycogen synthase (1 μM) and MLC20 (1 μM) and heavy meromyosin (1 μM) was carried out as in [24]. One unit of activity (U) was that amount which released […] of phosphate in one minute.
# PP1c was isolated from the rabbit skeletal muscle PP1-GM complex as described previously (Johnson et al, 1996). Glycogen particles isolated from rat liver (Schelling el al, 1988) served as the source of PP1-GL. The dephosphorylation of glycogen phosphorylase (10 μM) and the isolated MLC20 of smooth muscle myosin (1 μM) by PP1c was carried out as described previously (Cohen et al., 1988; Alessi et al., 1992).
# PP1c [2] = target: T1, PP1c; test: Glycogen synthase phosphatase activity of PP1c; format: biochemical, rabbit
# Experimental: The glycogen synthase phosphatase activity of PP1c was measured after a 15 minute incubation at 30° C. with the indicated concentrations of M110-(M1-F38) and M110-(M1-E309). Similar results were obtained in three different experiments.
# as §1
# M21 subunit = test: Far Western blotting: interaction with the M21 subunit; format: binding, chicken; settings: probe 0.2 μg/ml
# How it was run: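 Proteins (PP1M, M110 and M21 fragments, MBP or GST fusions) resolved on 12% or 16.5% SDS gels, transferred to nitrocellulose and probed with digoxigenin-labelled M21, M21-(M1-L146) or MBP-M110-(K933-I1004) at 0.2 μg/ml. Parallel gels Coomassie-stained; protein by Bradford.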
# T1 sequence (P62143 whole entry): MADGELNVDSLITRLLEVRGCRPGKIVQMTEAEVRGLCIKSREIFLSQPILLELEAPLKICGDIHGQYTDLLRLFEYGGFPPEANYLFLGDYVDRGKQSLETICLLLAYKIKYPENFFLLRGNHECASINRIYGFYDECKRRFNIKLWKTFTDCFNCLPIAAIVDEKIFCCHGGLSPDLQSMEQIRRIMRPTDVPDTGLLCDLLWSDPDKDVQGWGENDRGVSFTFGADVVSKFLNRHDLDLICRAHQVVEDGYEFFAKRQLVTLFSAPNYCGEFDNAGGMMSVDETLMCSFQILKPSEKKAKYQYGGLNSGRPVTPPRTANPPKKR
# Sequence of M21 subunit (as listed by the source): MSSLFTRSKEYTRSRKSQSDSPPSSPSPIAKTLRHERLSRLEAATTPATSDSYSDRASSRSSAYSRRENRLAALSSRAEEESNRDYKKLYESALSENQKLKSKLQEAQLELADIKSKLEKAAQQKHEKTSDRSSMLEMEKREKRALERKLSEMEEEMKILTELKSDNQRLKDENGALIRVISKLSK
molecule,measurement,setting,value
B1,suppression of PP1c activity towards glycogen phosphorylase,PP1c [1],about 80%
same,effect on the dephosphorylation of glycogen synthase by PP1c,PP1c [2],inhibited
same,recognised by digoxigenin-labelled M21 subunit in Far Western blotting,M21 subunit,not
